From patent EP3172325B1

How the values were obtained:
[1] = target: MART-1 peptide on HLA-A*02:01 (human); assay: SPR, Biacore 3000, TCR amine-coupled to a CM5 chip, refolded pMHC injected, 25 C, 1:1 Langmuir model; Table 2 draws on Fig. 2 and published work (PMID: 24550723); soluble, other
[2] = target: MART-1 peptide on HLA-A*02:01 (human); assay: SPR, Biacore 3000, TCR amine-coupled to a CM5 chip, refolded pMHC injected up to 100 micromolar, 25 C, 1:1 Langmuir model (Fig. 2); soluble, other
[3] = target: MART-1 peptide on HLA-A*02:01 (human); assay: SPR, Biacore 3000, TCR amine-coupled to a CM5 chip, refolded pMHC injected up to 100 micromolar, 1:1 Langmuir model (Fig. 4); weaker than αD26Y/βL98W (0.024) and wild-type DMF5 (9.5); soluble, other
[4] = target: MART-1 peptide on HLA-A*02:01 (human); assay: SPR, Biacore 3000, TCR amine-coupled to a CM5 chip, refolded pMHC injected up to 100 micromolar, 1:1 Langmuir model (Fig. 4); soluble, other
[5] = target: MART-1 peptide on HLA-A*02:01 (human); assay: SPR, Biacore 3000, TCR amine-coupled to a CM5 chip, refolded pMHC injected, 25 C; the same value stands in Table 2 r6, where the peptide is printed as AAG; soluble, other

Question: Which Kd [1] does the source give for DMF5 TCR αD26Y here?
Answer: 460 nM

Question: What about the Kd [2] of the same substance?
Answer: 4500 nM

Question: With DMF5 TCR αD26Y/αY50A/βL98W as the substance, how does the Kd [3] read?
Answer: 556000 nM

Question: For DMF5 TCR αD26Y/αY50F/βL98W, which Kd [4] is on record?
Answer: 640 nM

Question: DMF5 TCR αD26Y/αY50V/βL98W was tested. Which Kd [4] did it give?
Answer: 7140 nM

Question: DMF5 TCR αD26Y/αY50W/βL98W was tested. Which Kd [4] did it give?
Answer: 660 nM

Question: DMF5 TCR αD26Y/βL98W was tested. Which Kd [5] did it give?
Answer: 24 nM

Question: How did the Kd [1] turn out when DMF5 TCR βL98W was run?
Answer: 2900 nM
